B1: GST-RCAR12 (receptor, Arabidopsis thaliana, UniProt Q8VZS8 1-221, looked up)
chain: MANSESSSSPVNEEENSQRISTLHHQTMPSDLTQDEFTQLSQSIAEFHTYQLGNGRCSSLLAQRIHAPPETVWSVVRRFDRPQIYKHFIKSCNVSEDFEMRVGCTRDVNVISGLPANTSRERLDLLDDDRRVTGFSITGGEHRLRNYKSVTTVHRFEKEEEEERIWTVVLESYVVDVPEGNSEEDTRLFADTVIRLNLQKLASITEAMNRNNNNNNSSQVR
notes: ABA receptor RCAR12 (PYL1), Arabidopsis, subfamily III; also called PYL1; source: E. coli Rosetta (DE3), purified as GST-tag protein; not shown: GST, N-terminal, kept
B2: GST-RCAR13 (receptor, Arabidopsis thaliana, UniProt Q9SSM7 1-209, looked up)
chain: MNLAPIHDPSSSSTTTTSSSTPYGLTKDEFSTLDSIIRTHHTFPRSPNTCTSLIAHRVDAPAHAIWRFVRDFANPNKYKHFIKSCTIRVNGNGIKEIKVGTIREVSVVSGLPASTSVEILEVLDEEKRILSFRVLGGEHRLNNYRSVTSVNEFVVLEKDKKKRVYSVVLESYIVDIPQGNTEEDTRMFVDTVVKSNLQNLAVISTASPT
notes: ABA receptor RCAR13, Arabidopsis, subfamily III; source: E. coli Rosetta (DE3), purified as GST-tag protein; not shown: GST, N-terminal, kept
B3: GST-RCAR14 (receptor, Arabidopsis thaliana, UniProt O80992 1-190, looked up)
chain: MSSSPAVKGLTDEEQKTLEPVIKTYHQFEPDPTTCTSLITQRIHAPASVVWPLIRRFDNPERYKHFVKRCRLISGDGDVGSVREVTVISGLPASTSTERLEFVDDDHRVLSFRVVGGEHRLKNYKSVTSVNEFLNQDSGKVYTVVLESYTVDIPEGNTEEDTKMFVDTVVKLNLQKLGVAATSAPMHDDE
notes: ABA receptor RCAR14, Arabidopsis, subfamily III; source: E. coli Rosetta (DE3), purified as GST-tag protein; not shown: GST, N-terminal, kept

The experiment concerns the target T1, His-CARK1-KD (CARK1 kinase domain, residues 50-353) (Arabidopsis thaliana, UniProt Q9LUT0 50-353).
T1 construct: Cytosolic ABA Receptor Kinase 1 (CARK1), Arabidopsis, kinase domain, residues 50-353; also called Cytosolic ABA Receptor Kinase 1 kinase domain; source: E. coli Rosetta (DE3), purified as previously described (Zhang et al., 2018)
T1 sequence (looked up): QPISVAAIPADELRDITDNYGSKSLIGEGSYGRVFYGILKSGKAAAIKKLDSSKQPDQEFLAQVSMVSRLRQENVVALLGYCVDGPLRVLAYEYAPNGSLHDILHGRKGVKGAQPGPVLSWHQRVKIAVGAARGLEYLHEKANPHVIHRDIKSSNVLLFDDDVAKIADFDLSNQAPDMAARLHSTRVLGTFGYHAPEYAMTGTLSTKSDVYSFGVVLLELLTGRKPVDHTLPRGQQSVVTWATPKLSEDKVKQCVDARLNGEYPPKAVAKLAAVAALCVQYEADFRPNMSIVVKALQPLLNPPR
Description: pull-down; GST-RCARs bound to glutathione Sepharose 4B resin; His-CARK1-KD or His-CARK1-KD^N204A co-incubated 1 h at room temperature; 50 ug of each protein; SDS-PAGE and anti-His blot. The conditions noted are these: both partners purified.
As to B1, the binding result is listed as “binds”.
For B2 the value was “binds”; for B3, “binds”.

These data come from paper PMC6322571, “CARK1 phosphorylates subfamily III members of ABA receptors” (Journal of Experimental Botany, 2018).
